Data as given in the supplement of paper PMC9170038.

What was measured:
[1] = tested on: MS2 coat protein; test: apparent KD of MS2 coat protein, switch OFF state (with FMN for OFF switches, without FMN for ON switches); designed switch direction (-1 OFF switch, 1 ON switch): -1; higher = weaker reporter binding; details: FMN input: 0 or 200 uM; Eterna round: R93 (includes R88 designs)
Method in brief: (§1)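 Apparent KD stands for the median, per design, of fits to normalised cluster binding curves. The curves came from titrating on-chip-transcribed RNA switches on Illumina sequencing clusters with SNAP-549-labelled MS2 coat protein, twofold from 0.7 or 1.5 nM to 3 µM. Buffer was 100 mM Tris-HCl pH 7.5, 80 mM KCl, 4 mM MgCl2, without or with constant ligand.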

[2] = tested on: MS2 coat protein; test: apparent KD of MS2 coat protein, switch ON state; designed switch direction (-1 OFF switch, 1 ON switch): -1; higher = weaker reporter binding; details: FMN input: 0 or 200 uM; Eterna round: R93 (includes R88 designs)
Method in brief: as §1

Row | Sequence | apparent KD of MS2 coat protein [1] | apparent KD of MS2 coat protein [2]
1 | AACAGUACAGGAUAUACAUGAGGAUCACCCAUGUAAAAAUAAAAAGGGAACUCAAAAAGUAGAAGGGUACUGGA [Moding Maslow revisited (73) 14] | 32.5 nM | 72.6 nM
2 | AACAGUACAGGAUAUACAUGAGGAUCACCCAUGUAAAAUAAAUAAAAAUAAAAAGGAAGUAGAAGGGUACUGGA [Moding Maslow revisited (73) 18] | 26.4 nM | 30.1 nM
3 | AACAGUACAGGAUAUACAUGAGGAUCACCCAUGUAAAGGGAAUAAAACAAAAAUAAAUGUAGAAGGGUACUGGA [Moding Maslow revisited (73) 21] | 129 nM | 69.3 nM
4 | AACAGUACAGGAUAUACAUGAGGAUCACCCAUGUAGAGAGAAUAAAACAAAAAUAAAAGUAGAAGGGUACUGGA [Ruby 48] | 19.3 nM | 21.8 nM
5 | AACAGUACAGGAUAUACAUGAGGAUCACCCAUGUGAAAAUUAAGUGGGAAACCACAAAGUAGAAGGGUACUGAA [Mat - Exclusion 3 - Eli mod - D59] | 114 nM | 22 nM
6 | AACAGUACAGGAUAUACAUGAGGAUCACCCAUGUGAAAAUUAAGUGGGAAACCACAAGGUAGAAGGGUACUGGA [Mat - Exclusion 3 - Eli mod - D64] | 157 nM | 27.1 nM
7 | AACAGUACAGGAUAUACAUGAGGAUCACCCAUGUGAAAAUUAAGUGGGAAACCACAGUGUAGAAGGGUACUGGA [Mat - Exclusion 3 - Eli mod - D54] | 51.9 nM | 102 nM
8 | AACAGUACAGGAUAUACAUGAGGAUCACCCAUGUGAAAGAAAAGUGGCGUACCACAAAGUAGAAGGGUACUGGA [Mat - Exclusion 3 - JL mod - D23] | 122 nM | 26.9 nM
9 | AACAGUACAGGAUAUACAUGAGGAUCACCCAUGUGAGAAUUAAGCAGCGUAACACACAGUAGAAGGGUAAUGGA [Ruby 20] | 40.7 nM | 46.4 nM
10 | AACAGUACAGGAUAUACAUGAGGAUCACCCAUGUGAGAAUUAAGUGGAGAACCACAAAGUAGAAGGGUACUGAA [Mat - Exclusion 3 - JL mod - D8] | 147 nM | 39.2 nM
11 | AACAUGUCAGGAUAUGUAGCAAAAAGUGAUCCAAAAAAGCUACAGAAGGGACAUGAGGAUCACCCAUGUAAAAA [Ex4: 933] | 44.5 nM | 124 nM
12 | AACCAACAUGAGGAUCACCCAUGUCAGGAUAUGCAAACAACAAACAACAAACAACAAAGCAGAAGGGACAAAAA [Amethyst 82] | 19.5 nM | 17.8 nM
13 | AACGGGCUAGGAUAUACACAAGCCUCAUAACAAAUAAACAAACAUGAGGAUCACCCAUGUAGAAGGAGCGCAAA [Quraaon] | 72.5 nM | 33 nM
14 | AACUAGUGAGGAUAUGCAAGAAAAAAAAAAAAAAUAAAGGGACAUGAGGAUCACCCAUGUAGAAGGCACUAACA [Diamond 68] | 58.8 nM | 42.7 nM
15 | AACUGACAUGAGGAUCACCCAUGUCAGGAUAUGACAUCGAAAAAAAAAAAAAUCGUUGUCAGAAGGGACAUGAA [Design 77: Sub-opt SB] | 13.1 nM | 16.7 nM
16 | AACUGACAUGAGGAUCACCCAUGUCAGGAUAUGACAUCGAAAAAAAAAAAAAUCGUUGUCAGAAGGGACAUGGG [Design 73: Sub-opt QB] | 9.44 nM | 11.9 nM
17 | AACUGACAUGAGGAUCACCCAUGUCAGGAUAUGAUUUGACGAAAAAAAAUAAGUCAUAUCAGAAGGGACAUGGA [Design 84: Sub-opt WB] | 45 nM | 26 nM
18 | AACUGACAUGAGGAUCACCCAUGUCAGGAUAUGCAUCUUAGGAAAAAAAAACUAAGAUGCAGAAGGGACAUGGG [Design 3: Super Stable 3] | 15.8 nM | 16.8 nM
19 | AACUGACAUGAGGAUCACCCAUGUCAGGAUAUGCUUCAUAAAAAAAAAAAAAAAUGAUGCAGAAGGGAUAUGGA [Design 36 :P Sub-opt 12] | 13.6 nM | 21.5 nM
20 | AACUGGGCAGGAUAUACAUGAGGAUCACCCAUGUAAAGAAAAGAAAGGUCCGAGGAAAGUAGAAGGGCCUGGAA [Variant 5 of Mod 1 of Ex3 sub 3, by Tesla's Dusciple Round 1] | 38.9 nM | 40.6 nM
21 | AAGAAACAUGAGGAUCACCCAUGUCAGGAUAUUGAAAAGAAAAGAAAAGAAAGAAGAACAAGAAGGGACAAAGG [Neferkare (III) Neby] | 40.3 nM | 37.1 nM
22 | AAGAACAGAGGAUAUACUAAAGAAAUGAAAAGAAAGAAAGAACAUGAGGAUCACCCAUGUAGAAGGCUGAAGAA [Yakbim Sekhaenre] | 13.5 nM | 25.9 nM

Row | Sequence | apparent KD of MS2 coat protein [1] | apparent KD of MS2 coat protein [2]
23 | AAGAACAGAGGAUAUGCUAAAGAAAUAAAAAUAAAUAAAGAACAUGAGGAUCACCCAUGUAGAAGGCUGAAGAA [Seven kings] | 28 nM | 28.3 nM
24 | AAGAAGACAGGAUAUACAUGAAAGAAAGAAAAGAAAAGAAAACAUGAGGAUCACCCAUGUAGAAGGGUCAAGAA [EteRNA is fun!] | 34.9 nM | 23.5 nM
25 | AAGAAGGCAGGAUAUACAAAAUAAAAGAAAAGAAAGAAAGAACAUGAGGAUCACCCAUGUAGAAGGGCCAAGAA [Seankhibre Amenemhet VI] | 37.2 nM | 58.3 nM
26 | AAGAAGGUAGGAUAUACUAAAGAAACUAAUGCAAAGAUAAAACAUGAGGAUCACCCAUGUAGAAGGGCCAGAAA [JR_Exc002_Sub016] | 25.1 nM | 35.6 nM
27 | AAGAAGGUAGGAUAUACUAACGAAACUAAUGCAUAGAUAAAACAUGAGGAUCACCCAUGUAGAAGGGCCAGAAU [JR_Exc002_Sub015] | 26.6 nM | 43.8 nM
28 | AAGAAGGUAGGAUAUACUAGGGCAACUAAUGCAAAGAUAGAACAUGAGGAUCACCCAUGUAGAAGGGCCAGAAA [JR_Exc002_Sub402] | 40.5 nM | 35.7 nM
29 | AAGAAGUCAGGAUAUGCCAGAGAUCACGAAAGUGACGAGUAGCAGAAGGGACAUGAGGAUCACCCAUGUAAAGA [Opal 7] | 45 nM | 39.8 nM
30 | AAGAAGUGAGGAUAUACGCGAACAAAAAAAAAAAAGAAAGCGUAGAAGGCACAUGAGGAUCACCCAUGUCCAAA | 34.9 nM | 27.7 nM
31 | AAGAAGUGAGGAUAUAGUUGCACUAGCUAAUGCUAGUGCAACUAGAAGGCACAUGAGGAUCACCCAUGUAAAAG [Meechl Ex4 2] | 46.7 nM | 40.6 nM
32 | AAGAAGUGAGGAUAUCGAAGACUGUCGAAAAGACAGUCGAACGAGAAGGCACAUGAGGAUCACCCAUGUGAUAA [Mat - Exaclusion 4 - Eli mod - D70] | 107 nM | 28.2 nM
33 | AAGAAGUGAGGAUAUGCUGCUCGUCACAAAAGUGAUGAGUAGCAGAAGGCACAUGAGGAUCACCCAUGUAAAGA [JL eternac mod 1] | 48.8 nM | 40.6 nM
34 | AAGAAUCGAGGAUAUACAUGAGGAUCACCCAUGUAAAAGAAAGAGGGAAAAGAGAAAAGUAGAAGGCGAAAGAA [Ptolemy Memphitis] | 21.6 nM | 45.9 nM
35 | AAGAAUGAAGGAUAUACAUGAGGAUCACCCAUGUAAGAGAAAGAGGGAAAAGAGAAAAGUAGAAGGUCAAAGAA [Ruby 72] | 33.7 nM | 22 nM
36 | AAGAGGUCAGGAUAUGCCCACCAGGAAAAACGUCCAGGUGGGCAGAAGGGACAUGAGGAUCACCCAUGUAAAGA [Opal 41] | 114 nM | 44.8 nM
37 | AAGAGGUGAGGAUAUCGAAGAAGAAGAAGAAGAAGAAGAAACGAGAAGGCACAUGAGGAUCACCCAUGUAAGAA [Exclusion 4] | 18.8 nM | 23.4 nM
38 | AAGAGUAGAGGAUAUACAUGAGGAUCACCCAUGUAAUCCGGAUAAGGAAGCAUGUCGUGUAGAAGGCUGCAUGA [MOD 3 of Nando (MS2 Riboswitches- Exclusion 3)] | 14.1 nM | 15.5 nM
39 | AAGAUCAGAGGAUAUACAUAAGGUGAUGGAAACAUCGCCAAACAUGAGGAUCACCCAUGUAGAAGGCUGAUCAA [Mat - Exclusion 2 - JL mod - D61] | 43.7 nM | 35.7 nM
40 | AAGGGACAUGAGGAUCACCCAUGUCAGGAUAUGAUGCGAAUAAAGAAAGAAGAAAGCAUCAGAAGGGACGCCAA [58%, Disencluded 3, 5] | 39.5 nM | 25.4 nM
41 | AAGGGACAUGAGGAUCACCCAUGUCAGGAUAUGAUGCGAAUAAAGAAAGAAGAAAGCAUCAGAAGGGACGCCUA [58%, Disencluded 3, 6] | 27.6 nM | 19.3 nM
42 | AAGGGACAUGAGGAUCACCCAUGUCAGGAUAUGCGAAAAAAAAAAAUAAAAAAAAAAAGCAGAAGGGACACCAA [Mat - Exclusion 1 - Eli mod - D58] | 102 nM | 104 nM
43 | AAGUACUCAGGAUAUACAUGAGGAUCACCCAUGUGAAAAAAGCGUAAAAAACGCACAUGUAGAAGGGAGUACAA [JL In thr Red Again] | 333 nM | 122 nM
44 | AAGUUAUUAGGAUAUACUAGUGCAAUUAAUACGCUGAUAGUACAUGAGGAUCACCCAUGUAGAAGGAAUAAAAA [Mat - Exclusion 2 - JL mod - D66] | 20.6 nM | 30.5 nM
